Measured values as given in publication PMC4618611, “IscR of Rhodobacter sphaeroides functions as repressor of genes for iron-sulfur metabolism and represents a new type of iron-sulfur-binding protein” (MicrobiologyOpen, 2015).
“And” between values parts separate entries of the source, which are not always exact repeats. Equal values may be shown once.

Biological target: the molecule itself
Experiment: SEC; gel filtration of the purified protein on a Superdex 200 16/60 column; aerobic conditions; data not shown

B1: IscR of Rhodobacter sphaeroides (His-tagged recombinant IscR) (natural protein, UniProt Q3J0R9 1-155, looked up)
chain: MKLSTKGRYAMVALVDLALAQKSGNELVSLAEVSKRQDISLPYLEQLFVKLRRAGLVEAVRGPGGGYKLARPAESIRVSEIMEAVEETVNAMHTGAGASGGVSGSRAQSLTNRLWEGLSAHVYVFLHQTRLSDIIKNEMRPCPAVPALFRVVDED
notes: IscR, Rhodobacter sphaeroides 2.4.1, locus RSP_0443 (KEGG), 155 amino acid residues; the coding region of iscR was amplified and cloned into pQE30; also called His-tagged IscR; RSP_0443; source: E. coli M15 (pQE30::iscR), overexpressed, purified (Ni-NTA)
Q: Which “stoichiometry N” value does the source give for B1 here?
A: 2 and 4
